According to paper doi:10.1101/2024.03.04.583282v1:

What was measured:
Conditions in all cases: acCoA co-substrate, 50 mM Tris-HCl pH 8.5, 150 mM NaCl, 25 °C
[1] = substrate: NCCCC[C@H](N)C(=O)O; assay: purified protein
[2] = substrate: NCCCN; assay: purified protein
[3] = substrate: NCCC[C@H](N)C(=O)O; assay: purified protein
[4] = substrate: NCCCCN; assay: DTNB acetyltransferase assay; format: biochemical, Arabidopsis thaliana
[5] = substrate: NCCCNCCCCNCCCN; assay: DTNB acetyltransferase assay; format: biochemical, Arabidopsis thaliana
[6] = substrate: NCCSC[C@H](N)C(=O)O; assay: DTNB acetyltransferase assay; format: biochemical, Arabidopsis thaliana

| Protein | Km [1] [µM] | kcat [1] [s⁻¹] | Km [2] [µM] | kcat [2] [s⁻¹] | Km [3] [µM] | kcat [3] [s⁻¹] | Km [4] [µM] | kcat [4] [s⁻¹] | Km [5] [µM] | kcat [5] [s⁻¹] | Km [6] [µM] | kcat [6] [s⁻¹] |
| --- | --- | --- | --- | --- | --- | --- | --- | --- | --- | --- | --- | --- |
| NATA1Δ (Arabidopsis thaliana) (protein) TGHRMFSRIRLATPTDVPFIHKLIHQMAVFERLTHLFVATESGLASTLFNSRPFQAVTVFLLEISPSPFPTTHDASSPDFTPFLETHKVDLPIEDPDREKFLPDKLNDVVVAGFVLFFPNYPSFLAKQGFYIEDIFMREPYRRKGFGKLLLTAVAKQAVKLGVGRVEWIVIDWNVNAINFYEQMGAQVFKEWRLCRLTGDALQAIDKLNI | 12700 ± 3520 | 0.58 ± 0.09 | 440 ± 120 | 1.59 ± 0.08 | 4040 ± 820 | 0.64 ± 0.05 | 1900 ± 420 | 1.11 ± 0.12 | 2260 ± 500 | 1.56 ± 0.10 | 540 ± 130 | 2.04 ± 0.20 |
| NATA2Δ (Arabidopsis thaliana) (protein) MFSRIRLATPSDVPFIHKLIHQMAVFERLTHLFSATESGLASTLFTSRPFQSFTVFLLEVSRSPFPATITSSPSPDFTPFFKTHNLDLPIDDPESYNFSPDMLNDVVVAGFVLFFPNYSSFLSKPGFYIEDIFVREPYRRKGFGSMLLTAVAKQAVKMGYGRVEWVVLDWNVNAIKFYEQMGAQILQEWRVCRLTGDALEAFDQVNI | 9480 ± 2530 | 0.45 ± 0.10 | 370 ± 70 | 1.46 ± 0.07 |  |  | 2290 ± 480 | 1.04 ± 0.07 | 1620 ± 350 | 1.49 ± 0.08 | 330 ± 80 | 2.20 ± 0.10 |
